According to patent publication US20200277375A1 (ULTRAHUMAN FOUR, published 2020):

T1: mouse CD47-Fc (mouse, UniProt Q61735 19-140, limits assumed)
T1 construct: Recombinant CD47-Fc; also called mCD47-Fc; mCD37-Fc [sic]; not shown: Fc part
T1 sequence (looked up): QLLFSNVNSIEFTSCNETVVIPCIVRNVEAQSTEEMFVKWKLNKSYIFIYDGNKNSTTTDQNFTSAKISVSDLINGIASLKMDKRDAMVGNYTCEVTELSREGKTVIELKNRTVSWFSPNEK


What was measured:
[1] = biological target: T1, mouse CD47-Fc; assay: direct titration ELISA, FIG. 11C
Method: (§1) FIG. 11A-FIG. 11C. Direct titration ELISA for A-D5.4-derived designer IgGs binding to human, mouse and cyno CD47-Fc proteins. Chimeric anti-CD47 (mVH/mVL), designer A-D5.4-derived clones in human IgG1 null format were titrated (in μg/ml) in a direct binding ELISA against human (FIG. 11A), cyno (FIG. 11B) and mouse (FIG. 11C) CD47-Fc proteins. […] In the figure legends, “IgG1NI” refers to IgG1 null isotype.
(§2) To coat Greiner Bio-One High bind ELISA plates, target proteins were diluted to 1 μg/ml in carbonate buffer and added at 100 μl per well, at 4° C., o/n. Coated plates were washed 3× with PBS pH7.4, blocked with 1% BSA in PBS (380 μl/well) for 1 hr at RT, then washed 3× with PBS-Tween 20 (PBST). CD47 antibodies (100 μl/well; diluted in PBST) were then added and then incubated 1 hr at RT. Plates were then washed 3× with PBST and goat anti-human kappa chain-HRP added (100 μl/well) at RT, for 1 hr. Plates were then washed 3× with PBST and twice with PBS before the addition of 100 μl TMB per well. Reactions were stopped by adding 100 μl 2M H₂SO₄/well and OD was read on a plate reader at 450 nm.

[2] = biological target: T2, cynomolgus monkey CD47 on transfected CHO-K1 cells (cynomolgus monkey, UniProt A0A5F8AK49 19-323 (rhesus entry)); assay: flow cytometry, cyno CD47-transfected CHO-K1, FIG. 6
T2 construct: whole, on cells; also called cyno CD47+ cells
Method: (§3) FIG. 6A-FIG. 6C. Flow cytometric binding to human and cyno CD47+CHO-K1 cells. Commercial anti-CD47 antibody MS1991, human IgG1 (“I IgG1”) and IgG4 (“I IgG4”) Isotype controls, lead library-derived IgGs in both IgG1null (“IgG1N”) and IgG4(S228P) formats were examined for specific binding on cyno-transfected CHO-K1 cells (FIG. 6A), human-transfected CHO-K1 cells (FIG. 6B), and wild type (wt, i.e. untransfected) CHO-K1 cells (FIG. 6C). IgGs were tested at concentrations ranging from 24-100,000 ng/ml. Concentration-dependent binding was observed against both human and cyno cell lines for all CD47-specific antibodies but not Isotype controls.
(§4) Antibodies to CD47 were analysed for concentration-dependent binding at the cell surface via flow cytometry. CHO-K1 cells were stably transfected with either human, mouse or cyno CD47 full-length cDNAs. Anti-CD47 IgGs mVH/mVL, VH-A1/VL-B1, A-D5, G-B6, F-E7 and D-H3, and an isotype control IgG1 were then all tested in IgG1null and IgG4(S228P) formats, alongside a commercial mouse anti-human CD47 monoclonal MS1991, over a concentration range of 100,000-24 ng/ml for binding to human, cyno or wild type control (‘wt’, i.e. untransfected) CHO-K1.

[3] = biological target: T3, human CD47 on cells (human CD47-transfected CHO-K1; HL60) (human, UniProt Q08722 19-323); assay: flow cytometry, human CD47-transfected CHO-K1, FIG. 6
T3 construct: whole, on cells; also called human CD47+ cells; human CD47+HL60 cells
Method: as §3, §4

[4] = biological target: T4, human CD47-Fc (human, UniProt Q08722 19-139); assay: direct titration ELISA, FIG. 11A
T4 construct: Recombinant CD47-Fc; also called hCD47-Fc; not shown: Fc part
Method: as §1, §2

[5] = biological target: T4, human CD47-Fc; assay: direct titration ELISA, FIG. 9A
Method: FIG. 9A-FIG. 9C. Direct titration ELISA for designer IgGs binding to human, mouse and cyno CD47-Fc proteins. Chimeric anti-CD47 (mVH/mVL), designer A-D5-derived clones in human IgG1null format were titrated (in μg/ml) in a direct binding ELISA against human (FIG. 9A), cyno (FIG. 9B) and mouse (FIG. 9C) CD47-Fc proteins. […] In the figure legend, “IgG1NI” refers to IgG1 null isotype.
as §2

maximum MFI, fold over untransfected CHO-K1 [2] [fold]	maximum MFI, fold over untransfected CHO-K1 [3] [fold]	binding result [5]	Binder	further results
> 10	> 10		mVH/mVL (chimeric VxP037) in human IgG1null format (antibody, V domains shown, Murine v-domains on human IgG1null (IgG1 L234A/L235A/G237A), kappa; also called VP037; Chimeric anti-CD47) VH: EVQLQQFGAELVKPGASMKLSCKASGYTFTNYYVFWVKQRPGQGLEWIGDINPVNGDTNFNEKFKNKATLTVDKSSTTTYLQLSSLTSEDSAVYYCTRGGYTMDYWGQGTLVTVSS VL: DVVMTQTPLSLSVSLGDQASISCRSSQSLVHSNGNTYLHWYLQKPGQSPKLLIYKVSYRFSGVPDRFSGSGSGTDFTLKISRVEAEDLGVYFCSQNTHVPRTFGQGTKVEIK	binding result [1]: binds
> 10	> 10		mVH/mVL (chimeric VxP037) in human IgG4(S228P) format (antibody, V domains shown, IgG4 with S228P; also called mVH/mVL IgG4) VH: EVQLQQFGAELVKPGASMKLSCKASGYTFTNYYVFWVKQRPGQGLEWIGDINPVNGDTNFNEKFKNKATLTVDKSSTTTYLQLSSLTSEDSAVYYCTRGGYTMDYWGQGTLVTVSS VL: DVVMTQTPLSLSVSLGDQASISCRSSQSLVHSNGNTYLHWYLQKPGQSPKLLIYKVSYRFSGVPDRFSGSGSGTDFTLKISRVEAEDLGVYFCSQNTHVPRTFGQGTKVEIK	
> 10	> 10		G-B6 in human IgG4(S228P) format (antibody, V domains shown, IgG4(S228P), kappa; also called G-B6 IgG4) VH: EVQLVQSGAEVKKPGESLKISCKGSGYSFTNYYIFWVRQMPGKGLEWIGDINPVNGDTNFSPSFQGQVTISADKSISTAYLQWSSLKASDTAMYYCARGGYTMDKWGQGTLVTVSS VL: DIVMTQSPLSLPVTPGEPASISCRSSQSLVHSNGYTYLHWYLQKPGQSPQLLIYKGSYRASGVPDRFSGSGSGTDFTLKISRVEAEDVGVYYCSQNTQTPRTFGQGTKVEIK	
> 10	> 10		F-E7 in human IgG4(S228P) format (antibody, V domains shown, IgG4(S228P), kappa; also called F-E7 IgG4) VH: EVQLVQSGAEVKKPGESLKISCKGSGYSFTNYYIFWVRQMPGKGLEWMGIINPVNGDTNYNPSFQGQVTISADKSISTAYLQWSSLKASDTAMYYCARGGYTMGKWGQGTLVTVSS VL: DIVMTQSPLSLPVTPGEPASISCRSSQSLVHSNGNTYLDWYLQKPGQSPQLLIYKGSYRFSGVPDRFSGSGSGTDFTLKISRVEAEDVGVYYCSQATHTPRTFGQGTKVEIK	
			A-D5.11 in human IgG1null format (antibody, V domains shown, Designer clone from A-D5.4; IgG1null) VH: EVQLVQSGAEVKKPGESLKISCKGSGYSFTNYYIFWVRQMPGKGLEWMGIINPVDGDTNYNPSFQGQVTISADKSISTAYLQWSSLKASDTAMYYCARGGYTMDRWGQGTLVTVSS VL: DIVMTQSPLSLPVTPGEPASISCRSSQSLLHSNGYNYLHWYLQKPGQSPQLLIYKVSNRLSGVPDRFSGSGSGTDFTLKISRVEAEDVGVYYCFQNTHTPRTFGQGTKVEIK	binding result [4]: binds; binding result [1]: binds
		binds	A-D5.5 in human IgG1null format (antibody, V domains shown, Designer clone from A-D5; IgG1null) VH: EVQLVQSGAEVKKPGESLKISCKGSGYTFTNYYIFWVRQMPGKGLEWMGIINPVDGDTNYNPSFQGQVTISADKSISTAYLQWSSLKASDTAMYYCARGGYTMDRWGQGTLVTVSS VL: DIVMTQSPLSLPVTPGEPASISCRSSQSLLHSNGYNYLHWYLQKPGQSPQLLIYKGSNRLSGVPDRFSGSGSGTDFTLKISRVEAEDVGVYYCFQNTHTPRTFGQGTKVEIK	
> 10	> 10		A-D5 in human IgG4(S228P) format (antibody, V domains shown, IgG4(S228P), kappa; also called IgG4 A-D5) VH: EVQLVQSGAEVKKPGESLKISCKGSGYTFTNYYIFWVRQMPGKGLEWMGIINPVDGDTNYNPSFQGQVTISADKSISTAYLQWSSLKASDTAMYYCARGGYTMDRWGQGTLVTVSS VL: DIVMTQSPLSLPVTPGEPASISCRSSQSLLHSNGYTYLHWYLQKPGQSPQLLIYKVSNRLSGVPDRFSGSGSGTDFTLKISRVEAEDVGVYYCFQNTHTPRTFGQGTKVEIK	
> 10	> 10		VH-A1/VL-B1 in human IgG4(S228P) format (antibody, V domains shown, IgG4(S228P), kappa; also called VH-A1/VL-B1 IgG4) VH: EVQLVQSGAEVKKPGESLKISCKGSGYSFTNYYIFWVRQMPGKGLEWMGIINPVDGDTRYSPSFQGQVTISADKSISTAYLQWSSLKASDTAMYYCARGGFTMDYWGQGTLVTVSS VL: not shown	
> 10	> 10		D-H3 in human IgG4(S228P) format (antibody, V domains shown, IgG4(S228P), kappa; also called D-H3 IgG4) VH: EVQLVQSGAEVKKPGESLKISCKGSGYSFTNYYIFWVRQMPGKGLEWMGDINPVNGDTNYSPSFQGQVTISADKSISTAYLQWSSLKASDTAMYYCARGGYTPDYWGQGTLVTVSS VL: DIVMTQSPLSLPVTPGEPASISCRSSQSLLHSNGYNYLHWYLQKPGQSPQLLIYKGSNRFSGVPDRFSGSGSGTDFTLKISRVEAEDVGVYYCSQNLHVPRTFGQGTKVEIK	
		binds	A-D5.1 in human IgG1null format (antibody, V domains shown, Designer clone from A-D5; IgG1null) VH: EVQLVQSGAEVKKPGESLKISCKGSGYSFTNYYIFWVRQMPGKGLEWMGIINPVDGDTNYNPSFQGQVTISADKSISTAYLQWSSLKASDTAMYYCARGGYTMDRWGQGTLVTVSS VL: DIVMTQSPLSLPVTPGEPASISCRSSQSLLHSNGYTYLHWYLQKPGQSPQLLIYKVSNRLSGVPDRFSGSGSGTDFTLKISRVEAEDVGVYYCFQNTHTPRTFGQGTKVEIK	
		binds	A-D5.6 in human IgG1null format (antibody, V domains shown, Designer clone from A-D5; IgG1null) VH: EVQLVQSGAEVKKPGESLKISCKGSGYTFTNYYIFWVRQMPGKGLEWMGIINPVDGDTNYNPSFQGQVTISADKSISTAYLQWSSLKASDTAMYYCARGGYTMDRWGQGTLVTVSS VL: DIVMTQSPLSLPVTPGEPASISCRSSQSLLHSNGYNYLHWYLQKPGQSPQLLIYKGSNRLSGVPDRFSGSGSGTDFTLKISRVEAEDVGVYYCFQNTQTPRTFGQGTKVEIK	
		binds	A-D5.10 in human IgG1null format (antibody, V domains shown, Designer clone from A-D5; IgG1null) VH: EVQLVQSGAEVKKPGESLKISCKGSGYTFTNYYIFWVRQMPGKGLEWMGIINPVDGDTNYNPSFQGQVTISADKSISTAYLQWSSLKASDTAMYYCARGGYTMDRWGQGTLVTVSS VL: DIVMTQSPLSLPVTPGEPASISCRSSQSLLHSQGYTYLHWYLQKPGQSPQLLIYKVSNRLSGVPDRFSGSGSGTDFTLKISRVEAEDVGVYYCFQQTHTPRTFGQGTKVEIK	
		binds	A-D5.3 in human IgG1null format (antibody, V domains shown, Designer clone from A-D5; IgG1null) VH: EVQLVQSGAEVKKPGESLKISCKGSGYSFTNYYIFWVRQMPGKGLEWMGIINPVDGDTRYSPSFQGQVTISADKSISTAYLQWSSLKASDTAMYYCARGGYTMDRWGQGTLVTVSS VL: DIVMTQSPLSLPVTPGEPASISCRSSQSLLHSNGYTYLHWYLQKPGQSPQLLIYKVSNRLSGVPDRFSGSGSGTDFTLKISRVEAEDVGVYYCFQNTHTPRTFGQGTKVEIK	
		binds	A-D5.9 in human IgG1null format (antibody, V domains shown, Designer clone from A-D5; IgG1null) VH: EVQLVQSGAEVKKPGESLKISCKGSGYTFTNYYIFWVRQMPGKGLEWMGIINPVDGDTNYNPSFQGQVTISADKSISTAYLQWSSLKASDTAMYYCARGGYTMDRWGQGTLVTVSS VL: DIVMTQSPLSLPVTPGEPASISCRSSQSLLHSNGYTYLHWYLQKPGQSPQLLIYKVSNRLSGVPDRFSGSGSGTDFTLKISRVEAEDVGVYYCFQQTHTPRTFGQGTKVEIK	
